# In patent publication US20060183125A1:
# Columns and labels:
# [1] = biological target: human TREM-1-Ligand (human); assay: flow cytometry on peripheral neutrophils of a sepsis patient, 1 µg huTREM-1/IgM
# [2] = biological target: human TREM-1-Ligand (human); assay: flow cytometry, double staining with anti CD15, CD15 low neutrophils of a septic patient
# [3] = biological target: human TREM-1-Ligand (human); assay: flow cytometry on peripheral neutrophils of a sepsis patient, 0.2 µg huTREM-1/IgM
# [4] = biological target: human TREM-1-Ligand (human); assay: flow cytometry, double staining with anti CD15, CD15 high neutrophils of a septic patient
# [5] = biological target: murine TREM-1-Ligand (mouse); assay: flow cytometry, peritoneal cells of a representative control mouse
# [6] = biological target: murine TREM-1-Ligand (mouse); assay: flow cytometry, low Ly-6G peritoneal cell subset, septic (CLP) mouse
# [7] = biological target: murine TREM-1-Ligand (mouse); assay: flow cytometry, high Ly-6G peritoneal cell subset, septic (CLP) mouse
# [8] = biological target: murine TREM-1-Ligand (mouse); assay: flow cytometry, low Ly-6G peritoneal cell subset, control mouse
# [9] = biological target: murine TREM-1-Ligand (mouse); assay: flow cytometry, tetramer staining of blood cells of septic mice 6 hours after CLP induction
# [10] = biological target: murine TREM-1-Ligand (mouse); assay: flow cytometry, peritoneal cells of a representative septic (CLP) mouse
Substance,percent of cells stained positive [1] [%],percentage of TREM-1-Ligand expressing cells [2] [%],percent of cells stained positive [3] [%],percentage of TREM-1-Ligand expressing cells [4] [%],"frequency of Ly-6G positive, murine TREM-1-Receptor/IgG positive cells [5] [%]",frequency of double positive population [6] [%],frequency of double positive population [7] [%],frequency of double positive population [8] [%],percent of Ly-6G positive cells positive [9] [%],"frequency of Ly-6G positive, murine TREM-1-Receptor/IgG positive cells [10] [%]"
human TREM-1-Receptor/human IgM fusion protein (from UniProt Q9NP99 21-200),80,38,45,2,–,–,–,–,–,–
murine TREM-1-Receptor/human IgG fusion protein (from UniProt Q9JKE2 21-202) (Fc fusion),–,–,–,–,8.8,77,33,40,2,35
